Experimental data reported in US20240360218A1 (KYMAB, published 2024).

How the values were obtained:
[1] = target: T1, PD-L1-Fc (R&D Systems) (UniProt Q9NZQ7 19-239); assay: plate ELISA/DELFIA (Example 5d): biotinylated antibody on plate-bound PD-L1-Fc, streptavidin-Eu, TRF at 615 nm
T1 construct: not shown: Fc part of the bought fusion protein, not described
Method: Excess protein was removed by washing with PBS-Tween (0.1% v/v) and the wells were blocked with 250 μL/well Pierce Protein Free Blocking Buffer (Thermo, 37572) for 1 hour, after which plates were washed as described previously. […] 100 μL each antibody dilution was added to the plates in duplicate and incubated for 1 hour at room temperature, before washing as stated above. Antibody binding was detected using streptavidin labelled Europium (Perkin Elmer) diluted 1/1000 in DELFIA Assay buffer (Perkin Elmer). Plates were washed with TBS (Tris buffered saline)-Tween (0.1% v/v) and 50 μL/well of DELFIA Enhancement solution (Perkin Elmer) was added to the plate. Time-resolved fluorescence was measured at 615 nm on an Envision plate reader (PerkinElmer).

[2] = target: T2, hPD-L1-his (in-house generated recombinant human PD-L1, his-tagged) (human, UniProt Q9NZQ7 19-238, limits assumed, biotinylated in the ELISA and AlphaScreen assays (site not stated)); assay: SPR (ProteOn), anti-human Fc capture, 25 C
T2 construct: also called biotinylated hPD-L1-his; biotinylated His-PD-L1
Method: Label-free surface plasmon resonance (SPR) analysis was carried out on the ProteOn XPR36 (BioRad) array SPR machine. […] The data was analysed using the 1:1 model inherent to the ProteOn XPR36 analysis software.
SPR analysis was performed as per Example 4 with the following amendments: analysis was performed at 37° C. as well as 25° C. to increase the stringency of the assay.

T1 sequence (Q9NZQ7 19-239 limits assumed): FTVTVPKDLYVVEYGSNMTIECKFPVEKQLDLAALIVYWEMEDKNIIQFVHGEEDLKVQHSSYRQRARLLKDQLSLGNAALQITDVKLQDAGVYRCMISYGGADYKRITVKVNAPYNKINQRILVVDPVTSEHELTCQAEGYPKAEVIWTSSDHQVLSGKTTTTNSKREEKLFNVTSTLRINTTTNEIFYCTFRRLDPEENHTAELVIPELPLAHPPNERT
T2 sequence (Q9NZQ7 19-238 limits assumed): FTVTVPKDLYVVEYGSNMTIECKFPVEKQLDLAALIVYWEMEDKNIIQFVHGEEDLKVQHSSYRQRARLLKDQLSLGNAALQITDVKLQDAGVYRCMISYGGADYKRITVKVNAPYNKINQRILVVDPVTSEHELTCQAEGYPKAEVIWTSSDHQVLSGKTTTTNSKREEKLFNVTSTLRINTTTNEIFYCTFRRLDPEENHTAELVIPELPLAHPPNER

EC50 (read off the curve) [1]	koff [2]	Binder
~0.4 nM		1D05 (antibody, V domains shown, kappa light chain; also called clone 1D05; anti-PD-L1 antibody 1D05) VH: EVQLVESGGGLVQPGRSLRLSCAASGFTFDDYAMHWVRQVPGKGLEWVSGISWIRTGIGYADSVKGRFTIFRDNAKNSLYLQMNSLRAEDTALYYCAKDMKGSGTYGGWFDTWGQGTLVTVSS VL: not shown
	6.23e-05 s⁻¹	413G05 (antibody, human IgG1, V domains shown) VH: QVQLVESGGGLVKPGGSLRLSCAASGFTFSDYYMSWIRQVPGKGLEWVSYISTSGSTIYYADSVKGRFTISRDNAKNSLYLQMNSLRAEDAAVYHCARGITGTNFYHYGLGVWGQGTTVTVSS VL: DIQMTQSPSSVSASVGDRVTITCRASQGINSWLAWYQQKPGKAPKLLIYAASTLQSGVPSRFSGSGSGADFTLTISSLQPEDFATYYCQQVNSFPLTFGGGTKVEIK
~0.4 nM		84G09 (antibody, human IgG1, V domains shown, kappa light chain; also called clone 84G09) VH: EVQLVESGGGLVQPGRSLRLSCAASGFTFDDYAMHWVRQTPGKGLEWVSGISWKSNIIGYADSVKGRFTISRDNAKNSLYLQMNSLRAEDTALYYCARDITGSGSYGWFDPWGQGTLVTVSS VL: DIQMTQSPSSLSASVGDRVTITCRASQSISSYLNWYQQKPGKAPKPLIYVASSLQSGVPSSFSGSGSGTDFTLTISSLQPEDFATYYCQQSYSNPITFGQGTRLEIK
